The values that follow come from paper PMC7215426.

The target in data set [1] is T1, C-reactive protein (CRP) (human) (UniProt P02741).
T1 sequence: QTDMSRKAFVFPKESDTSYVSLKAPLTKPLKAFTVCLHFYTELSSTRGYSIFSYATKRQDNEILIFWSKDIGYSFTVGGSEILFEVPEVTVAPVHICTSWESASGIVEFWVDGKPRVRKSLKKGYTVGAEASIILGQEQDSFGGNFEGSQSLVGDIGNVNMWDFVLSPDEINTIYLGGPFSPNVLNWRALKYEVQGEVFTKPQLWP
Put plainly: SPR. The note with it: Ugu; SPR (ProteON XPR36) at 25 C in SB: 40 mM HEPES pH 7.5, 125 mM NaCl, 5 mM KCl, 1 mM MgCl2, 0.01% Tween 20; aptamer immobilized via 3' A20/T20 hybridized to ….

Data set [2] concerns the target Lactate dehydrogenase-5 (LDH-5) (human) (UniProt P00338). Put plainly: SPR. The note with it: Aad; SPR (ProteON XPR36) at 25 C in SB: 40 mM HEPES pH 7.5, 125 mM NaCl, 5 mM KCl, 1 mM MgCl2, 0.01% Tween 20; aptamer immobilized via 3' A20/T20 hybridized to ….

Sequence “CGCACATCAGTTTAGCTAGTTCTGCCTTAATATGGTCGGTTAAGCGCA [CRP-Ugu4-3]” had a Kd in data set [1] of 0.0062 nM.

The sequence “TGCTGCTGGCTCGTGAGACGGATATCAGGTCTCCTAAGGCTGGC [LDH-Aad1-3]” showed a Kd in data set [2] of 0.235 nM.

One may read the Kd as the equilibrium constant for the complex coming apart.
